Experimental data taken from PMC10694592.

Target: FITC-labeled 45-mer peptide derived from the C-terminal region of IKKβ
Assay: fluorescence polarisation; fluorescence anisotropy binding assay with an FITC-labeled 45-mer peptide of IKKβ and bacterially expressed full-length NEMO proteins; conditions not told here (refs 13, 26)

Chain of full-length WT NEMO (aa 1-419), bacterially expressed (Q9Y6K9 whole entry, the tested form may be a part): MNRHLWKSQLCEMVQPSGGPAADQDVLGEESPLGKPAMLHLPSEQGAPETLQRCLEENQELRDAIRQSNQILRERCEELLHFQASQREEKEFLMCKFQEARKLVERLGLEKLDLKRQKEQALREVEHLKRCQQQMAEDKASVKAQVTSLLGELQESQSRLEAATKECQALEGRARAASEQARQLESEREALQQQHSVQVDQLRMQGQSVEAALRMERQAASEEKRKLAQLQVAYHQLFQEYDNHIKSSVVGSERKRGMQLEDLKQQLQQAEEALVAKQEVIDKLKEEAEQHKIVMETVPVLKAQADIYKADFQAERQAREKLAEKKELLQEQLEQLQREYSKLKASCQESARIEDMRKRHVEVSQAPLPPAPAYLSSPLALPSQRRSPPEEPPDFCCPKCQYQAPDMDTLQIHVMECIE

Substance: OPTN-IVD-NEMO (aa 1-419), bacterially expressed (from UniProt Q9Y6K9 1-419) (natural protein)
- Kd: 33 nM

Substance: full-length WT NEMO (aa 1-419), bacterially expressed (from UniProt Q9Y6K9 1-419) (natural protein)
- Kd: 4.7 nM
